According to patent publication US20200140551A1 (GlaxoSmithKline, published 2020):

Columns and labels:
[1] = molecular target: T1, human ICOS on human T cells (human, UniProt Q9Y6W8 21-167); assay: cell-based or functional assay
T1 sequence: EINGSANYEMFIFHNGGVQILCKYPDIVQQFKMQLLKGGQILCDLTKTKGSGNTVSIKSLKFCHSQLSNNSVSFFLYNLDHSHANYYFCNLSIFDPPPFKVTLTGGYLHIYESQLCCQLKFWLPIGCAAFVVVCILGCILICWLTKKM

[2] = molecular target: T1, human ICOS on human T cells; assay: flow cytometry, activated human CD4 T cells, FITC MFI, donor 1173F42
Protocol: (§1) Either naive and/or activated CD3+ T cells were re-suspended in PBS with 0.1% BSA (FACS Buffer) containing Human FcR Blocking Solution at 2×10⁶ cells/mL (5 μl FcR Blocking Solution+[…] FACS Buffer per 1 mL). At a concentration of 2×10⁵ cells/well, 100 μl cells were placed into 2 mL 96 well Assay Blocks and incubated at room temperature for 15 minutes. During the incubation, a titration of the binding antibodies, anti-ICOS (H2L5 hIgG4PE) or IgG4 Isotype Control antibody was prepared as a 2× concentration. […] Following the binding incubation, cells were washed twice in 1 mL of FACS buffer, centrifuging at 400×g for 5 minutes at room temperature.
(§2) Data acquisition and compensation were performed on BD FACS instruments, LSR Fortessa X-20 or FACS Canto II using BD Diva (ver. 8.0) software. Data analysis employed Flow Jo software (ver.10.0.8r1). Results are reported as both MFI (Median Fluorescence Intensity) and Percent of cells positive for human IgG kappa light chain FITC staining out of the total live cells or appropriate parent population. EC50s were determined using Graphpad Prism 5 software (ver. 5.04) with non-linear regression of transformed data (X=(log(X)) using a variable slope with 4 parameters (log(Agonist) vs. response—Variable slope).

[3] = molecular target: T1, human ICOS on human T cells; assay: flow cytometry, activated human CD4 T cells, FITC MFI, median of donors
Protocol: (§3) Binding of H2L5 hIgG4PE was assessed in both naive and activated CD3+ T cells.
as §1, §2

[4] = molecular target: T2, human FcγR IIa H131 (human, UniProt P12318 36-218, limits assumed); assay: affinity to human Fcγ receptors (Table 6; NB = no binding); method not described
T2 sequence (looked up): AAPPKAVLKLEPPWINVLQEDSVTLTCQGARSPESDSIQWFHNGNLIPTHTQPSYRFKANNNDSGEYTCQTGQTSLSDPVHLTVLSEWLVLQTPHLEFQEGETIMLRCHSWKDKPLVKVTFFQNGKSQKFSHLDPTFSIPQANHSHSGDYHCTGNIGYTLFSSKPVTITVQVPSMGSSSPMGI

[5] = molecular target: T3, human FcγR IIIa V158 (human, UniProt P08637 17-208); assay: as above
T3 construct: allotype with Val at position 158 as printed

[6] = molecular target: T1, human ICOS on human T cells; assay: flow cytometry, activated human CD4 T cells, percent FITC positive, donor 2100M39
Protocol: as §1, §2

[7] = molecular target: T1, human ICOS on human T cells; assay: flow cytometry, activated human CD8 T cells, percent FITC positive, donor 1124F36
Protocol: as §3, §1, §2

[8] = molecular target: T1, human ICOS on human T cells; assay: flow cytometry, activated human CD4 T cells, percent FITC positive, mean of donors
Protocol: as §3, §1, §2

T3 sequence (P08637 17-208 F176V limits assumed): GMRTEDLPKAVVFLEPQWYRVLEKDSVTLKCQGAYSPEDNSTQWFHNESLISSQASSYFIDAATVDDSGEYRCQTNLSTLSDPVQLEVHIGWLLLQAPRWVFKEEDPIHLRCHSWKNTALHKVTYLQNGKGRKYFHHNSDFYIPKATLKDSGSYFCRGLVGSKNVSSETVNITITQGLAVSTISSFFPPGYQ

B1: H2L5 hIgG4PE (antibody)
heavy: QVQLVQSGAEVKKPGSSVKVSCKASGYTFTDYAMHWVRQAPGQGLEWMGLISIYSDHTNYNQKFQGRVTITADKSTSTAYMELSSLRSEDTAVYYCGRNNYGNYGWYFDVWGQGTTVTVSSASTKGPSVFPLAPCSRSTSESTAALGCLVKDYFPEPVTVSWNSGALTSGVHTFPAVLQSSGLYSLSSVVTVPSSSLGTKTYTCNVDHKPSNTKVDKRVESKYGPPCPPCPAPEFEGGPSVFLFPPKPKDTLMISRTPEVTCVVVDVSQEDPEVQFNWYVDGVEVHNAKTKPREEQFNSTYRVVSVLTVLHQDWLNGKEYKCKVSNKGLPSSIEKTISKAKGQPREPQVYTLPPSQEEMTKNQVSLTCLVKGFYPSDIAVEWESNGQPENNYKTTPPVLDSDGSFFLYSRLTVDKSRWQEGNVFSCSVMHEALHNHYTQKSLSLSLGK
light: EIVLTQSPATLSLSPGERATLSCSASSSVSYMHWYQQKPGQAPRLLIYDTSKLASGIPARFSGSGSGTDYTLTISSLEPEDFAVYYCFQGSGYPYTFGQGTKLEIKRTVAAPSVFIFPPSDEQLKSGTASVVCLLNNFYPREAKVQWKVDNALQSGNSQESVTEQDSKDSTYSLSSTLTLSKADYEKHKVYACEVTHQGLSSPVTKSFNRGEC
notes: also called 422 H2L5 hIgG4PE; H2L5 IgG4PE; copies: 2 + 2
EC50, CD4+CD25+, PBMC activation assay, donor 185M45, 24 hr [1]: 2.4 µg/mL | EC50, CD4+CD25+, PBMC activation assay, donor 185M45, 48 hr [1]: 0.5 µg/mL | EC50, CD4+CD25+, PBMC activation assay, donor 1124F36, 24 hr [1]: 0.6 µg/mL | EC50, CD4+CD25+, PBMC activation assay, donor 1124F36, 48 hr [1]: 0.6 µg/mL | EC50, CD4+CD25+, PBMC activation assay, donor 1136F50, 24 hr [1]: 0.3 µg/mL | EC50, CD4+CD25+, PBMC activation assay, donor 1136F50, 48 hr [1]: 0.6 µg/mL | EC50, CD4+CD25+, PBMC activation assay, donor 1149M52, 24 hr [1]: 0.6 µg/mL | EC50, CD4+CD25+, PBMC activation assay, donor 1149M52, 48 hr [1]: 0.4 µg/mL | EC50, CD4+CD69+, PBMC activation assay, donor 185M45, 24 hr [1]: 0.8 µg/mL | EC50, CD4+CD69+, PBMC activation assay, donor 1124F36, 24 hr [1]: 1.1 µg/mL | EC50, CD4+CD69+, PBMC activation assay, donor 1124F36, 48 hr [1]: 1.1 µg/mL | EC50, CD4+CD69+, PBMC activation assay, donor 1136F50, 24 hr [1]: 0.5 µg/mL | EC50, CD4+CD69+, PBMC activation assay, donor 1136F50, 48 hr [1]: 0.4 µg/mL | EC50, CD4+CD69+, PBMC activation assay, donor 1149M52, 24 hr [1]: 0.5 µg/mL | EC50, CD4+CD69+, PBMC activation assay, donor 1149M52, 48 hr [1]: 0.4 µg/mL | EC50, CD4+Ki67+, PBMC activation assay, donor 185M45, 48 hr [1]: 0.6 µg/mL | EC50, CD4+Ki67+, PBMC activation assay, donor 1124F36, 48 hr [1]: 0.8 µg/mL | EC50, CD4+Ki67+, PBMC activation assay, donor 1149M52, 48 hr [1]: 0.5 µg/mL | EC50, CD4+OX40+, PBMC activation assay, donor 185M45, 24 hr [1]: 1.6 µg/mL | EC50, CD4+OX40+, PBMC activation assay, donor 1124F36, 24 hr [1]: 0.6 µg/mL | EC50, CD4+OX40+, PBMC activation assay, donor 1124F36, 48 hr [1]: 1.2 µg/mL | EC50, CD4+OX40+, PBMC activation assay, donor 1136F50, 24 hr [1]: 0.2 µg/mL | EC50, CD4+OX40+, PBMC activation assay, donor 1136F50, 48 hr [1]: 0.4 µg/mL | EC50, CD4+OX40+, PBMC activation assay, donor 1149M52, 24 hr [1]: 0.6 µg/mL | EC50, CD4+OX40+, PBMC activation assay, donor 1149M52, 48 hr [1]: 0.4 µg/mL | EC50, CD8+CD25+, PBMC activation assay, donor 185M45, 24 hr [1]: 2 µg/mL | EC50, CD8+CD25+, PBMC activation assay, donor 185M45, 48 hr [1]: 0.5 µg/mL | EC50, CD8+CD25+, PBMC activation assay, donor 1124F36, 24 hr [1]: 0.6 µg/mL | EC50, CD8+CD25+, PBMC activation assay, donor 1124F36, 48 hr [1]: 0.5 µg/mL | EC50, CD8+CD25+, PBMC activation assay, donor 1136F50, 24 hr [1]: 0.4 µg/mL | EC50, CD8+CD25+, PBMC activation assay, donor 1136F50, 48 hr [1]: 0.7 µg/mL | EC50, CD8+CD25+, PBMC activation assay, donor 1149M52, 24 hr [1]: 1 µg/mL | EC50, CD8+CD25+, PBMC activation assay, donor 1149M52, 48 hr [1]: 0.4 µg/mL | EC50, CD8+CD69+, PBMC activation assay, donor 185M45, 24 hr [1]: 1.2 µg/mL | EC50, CD8+CD69+, PBMC activation assay, donor 185M45, 48 hr [1]: 0.5 µg/mL | EC50, CD8+CD69+, PBMC activation assay, donor 1124F36, 24 hr [1]: 0.8 µg/mL | EC50, CD8+CD69+, PBMC activation assay, donor 1124F36, 48 hr [1]: 1.1 µg/mL | EC50, CD8+CD69+, PBMC activation assay, donor 1136F50, 24 hr [1]: 0.5 µg/mL | EC50, CD8+CD69+, PBMC activation assay, donor 1136F50, 48 hr [1]: 0.6 µg/mL | EC50, CD8+CD69+, PBMC activation assay, donor 1149M52, 24 hr [1]: 0.6 µg/mL | EC50, CD8+CD69+, PBMC activation assay, donor 1149M52, 48 hr [1]: 0.4 µg/mL | EC50, CD8+Ki67+, PBMC activation assay, donor 185M45, 48 hr [1]: 0.4 µg/mL | EC50, CD8+Ki67+, PBMC activation assay, donor 1124F36, 48 hr [1]: 0.7 µg/mL | EC50, CD8+Ki67+, PBMC activation assay, donor 1149M52, 48 hr [1]: 0.3 µg/mL | EC50, CD8+OX40+, PBMC activation assay, donor 185M45, 24 hr [1]: 1.6 µg/mL | EC50, CD8+OX40+, PBMC activation assay, donor 1124F36, 24 hr [1]: 2.4 µg/mL | EC50, CD8+OX40+, PBMC activation assay, donor 1124F36, 48 hr [1]: 0.5 µg/mL | EC50, CD8+OX40+, PBMC activation assay, donor 1136F50, 24 hr [1]: 0.3 µg/mL | EC50, CD8+OX40+, PBMC activation assay, donor 1136F50, 48 hr [1]: 0.5 µg/mL | EC50, CD8+OX40+, PBMC activation assay, donor 1149M52, 24 hr [1]: 1.5 µg/mL | EC50, CD8+OX40+, PBMC activation assay, donor 1149M52, 48 hr [1]: 0.3 µg/mL | EC50, IFN-γ, PBMC activation assay, donor 185M45, 24 hr [1]: 0.3 µg/mL | EC50, IFN-γ, PBMC activation assay, donor 185M45, 48 hr [1]: 0.7 µg/mL | EC50, IFN-γ, PBMC activation assay, donor 1124F36, 24 hr [1]: 0.3 µg/mL | EC50, IFN-γ, PBMC activation assay, donor 1124F36, 48 hr [1]: 0.5 µg/mL | EC50, IFN-γ, PBMC activation assay, donor 1136F50, 24 hr [1]: 0.4 µg/mL | EC50, IFN-γ, PBMC activation assay, donor 1136F50, 48 hr [1]: 1.5 µg/mL | EC50, IFN-γ, PBMC activation assay, donor 1149M52, 24 hr [1]: 0.2 µg/mL | EC50, IFN-γ, PBMC activation assay, donor 1149M52, 48 hr [1]: 0.6 µg/mL | EC50, IL-6, PBMC activation assay, donor 185M45, 24 hr [1]: 0.7 µg/mL | EC50, IL-6, PBMC activation assay, donor 185M45, 48 hr [1]: 0.8 µg/mL | EC50, IL-6, PBMC activation assay, donor 1136F50, 24 hr [1]: 0.7 µg/mL | EC50, IL-6, PBMC activation assay, donor 1136F50, 48 hr [1]: 1.1 µg/mL | EC50, IL-6, PBMC activation assay, donor 1149M52, 24 hr [1]: 0.2 µg/mL | EC50, IL-6, PBMC activation assay, donor 1149M52, 48 hr [1]: 0.3 µg/mL | EC50, IL-10, PBMC activation assay, donor 185M45, 24 hr [1]: 0.7 µg/mL | EC50, IL-10, PBMC activation assay, donor 185M45, 48 hr [1]: 0.8 µg/mL | EC50, IL-10, PBMC activation assay, donor 1124F36, 24 hr [1]: 0.7 µg/mL | EC50, IL-10, PBMC activation assay, donor 1124F36, 48 hr [1]: 0.6 µg/mL | EC50, IL-10, PBMC activation assay, donor 1136F50, 24 hr [1]: 1.7 µg/mL | EC50, IL-10, PBMC activation assay, donor 1136F50, 48 hr [1]: 1.3 µg/mL | EC50, IL-10, PBMC activation assay, donor 1149M52, 24 hr [1]: 0.5 µg/mL | EC50, IL-10, PBMC activation assay, donor 1149M52, 48 hr [1]: 0.6 µg/mL | EC50, IL-17a, PBMC activation assay, donor 185M45, 24 hr [1]: 0.8 µg/mL | EC50, IL-17a, PBMC activation assay, donor 185M45, 48 hr [1]: 1.1 µg/mL | EC50, IL-17a, PBMC activation assay, donor 1124F36, 24 hr [1]: 0.6 µg/mL | EC50, IL-17a, PBMC activation assay, donor 1124F36, 48 hr [1]: 0.8 µg/mL | EC50, IL-17a, PBMC activation assay, donor 1136F50, 24 hr [1]: 1.4 µg/mL | EC50, IL-17a, PBMC activation assay, donor 1136F50, 48 hr [1]: 1.6 µg/mL | EC50, IL-17a, PBMC activation assay, donor 1149M52, 24 hr [1]: 0.7 µg/mL | EC50, IL-17a, PBMC activation assay, donor 1149M52, 48 hr [1]: 1 µg/mL | EC50, TNF-α, PBMC activation assay, donor 185M45, 48 hr [1]: 0.5 µg/mL | EC50, TNF-α, PBMC activation assay, donor 1124F36, 48 hr [1]: 0.3 µg/mL | EC50, TNF-α, PBMC activation assay, donor 1136F50, 48 hr [1]: 0.3 µg/mL | EC50, TNF-α, PBMC activation assay, donor 1149M52, 48 hr [1]: 0.2 µg/mL | EC50 [2]: 0.636 µg/mL | EC50 [3]: 1.04 µg/mL | binding result [4]: no binding | binding result [5]: no binding | EC50 [6]: 0.814 µg/mL | EC50 [7]: 0.619 µg/mL | EC50 [8]: 0.763 µg/mL
